{"source": "patent US9549967B2", "about": "“Regulation of sodium channels by PLUNC proteins” (The University of North Carolina at Chapel Hill, priority 2009, dated 2017)", "molecules": {"B1": {"name": "SPLUNC1: human SPLUNC1, 256 amino acid secreted PLUNC protein (SEQ ID NO:1); rSPLUNC1 = V5/6His-tagged protein purified from HEK293 media (protein, listed as Homo sapiens)", "chain": "MFQTGGLIVFYGLLAQTMAQFGGLPVPLDQTLPLNVNPALPLSPTGLAGSLTNALSNGLLSGGLLGILENLPLLDILKPGGGTSGGLLGGLLGKVTSVIPGLNNIIDIKVTDPQLLELGLVQSPDGHRLYVTIPLGIKLQVNTPLVGASLLRLAVKLDITAEILAVRDKQERIHLVLGDCTHSPGSLQISLLDGLGPLPIQGLLDSLTGILNKVLPELVQGNVCPLVNEVLRGLDITLVHDIVNMLIHGLQFVIKV", "modifications": "V5/6His tag", "notes": "rSPLUNC1 = V5/6His-tagged protein purified from HEK293 media"}}, "molecular_target": "T1, αR205,231Kβ, γR138K ENaC mutant (Rattus norvegicus, UniProt P37089+P37090+P37091, R138K/R205K/R231K)", "T1 construct": "expressed in transfected cells; host or cells: Xenopus laevis oocytes", "T1 sequence (P37089 1-698 R205K/R231K)": "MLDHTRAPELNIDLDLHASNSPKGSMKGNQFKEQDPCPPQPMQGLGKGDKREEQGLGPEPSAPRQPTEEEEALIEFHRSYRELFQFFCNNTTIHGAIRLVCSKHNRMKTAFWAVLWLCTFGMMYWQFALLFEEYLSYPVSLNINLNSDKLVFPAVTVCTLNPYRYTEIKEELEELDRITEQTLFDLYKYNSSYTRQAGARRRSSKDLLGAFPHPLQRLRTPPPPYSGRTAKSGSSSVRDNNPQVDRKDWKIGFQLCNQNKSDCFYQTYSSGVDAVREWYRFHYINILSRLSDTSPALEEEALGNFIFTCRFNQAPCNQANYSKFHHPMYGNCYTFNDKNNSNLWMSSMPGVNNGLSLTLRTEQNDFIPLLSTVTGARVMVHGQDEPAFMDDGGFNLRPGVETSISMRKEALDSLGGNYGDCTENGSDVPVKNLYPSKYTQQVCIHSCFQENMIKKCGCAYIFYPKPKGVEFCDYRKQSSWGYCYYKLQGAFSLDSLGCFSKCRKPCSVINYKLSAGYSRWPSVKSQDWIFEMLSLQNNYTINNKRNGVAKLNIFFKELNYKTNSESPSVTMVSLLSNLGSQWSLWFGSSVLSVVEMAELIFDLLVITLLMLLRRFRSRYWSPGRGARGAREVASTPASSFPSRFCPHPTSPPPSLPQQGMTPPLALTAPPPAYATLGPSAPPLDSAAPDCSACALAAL", "T1 sequence (P37090 1-638)": "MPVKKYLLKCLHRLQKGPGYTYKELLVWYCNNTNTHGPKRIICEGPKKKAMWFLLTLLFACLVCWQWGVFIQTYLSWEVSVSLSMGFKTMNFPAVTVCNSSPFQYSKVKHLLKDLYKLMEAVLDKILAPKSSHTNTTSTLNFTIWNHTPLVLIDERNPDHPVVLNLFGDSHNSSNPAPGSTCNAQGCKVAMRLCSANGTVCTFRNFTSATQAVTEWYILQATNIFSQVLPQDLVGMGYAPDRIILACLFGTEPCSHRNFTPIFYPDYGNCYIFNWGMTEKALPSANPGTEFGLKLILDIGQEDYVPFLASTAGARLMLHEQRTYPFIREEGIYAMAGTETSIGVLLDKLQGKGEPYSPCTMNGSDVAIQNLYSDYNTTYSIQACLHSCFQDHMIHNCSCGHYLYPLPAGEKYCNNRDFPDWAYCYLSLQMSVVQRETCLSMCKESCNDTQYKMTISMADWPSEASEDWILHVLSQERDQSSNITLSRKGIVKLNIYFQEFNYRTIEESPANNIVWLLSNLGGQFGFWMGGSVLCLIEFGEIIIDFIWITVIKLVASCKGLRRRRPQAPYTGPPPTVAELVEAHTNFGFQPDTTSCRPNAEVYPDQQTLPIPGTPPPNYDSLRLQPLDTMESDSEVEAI", "T1 sequence (P37091 1-650 R138K)": "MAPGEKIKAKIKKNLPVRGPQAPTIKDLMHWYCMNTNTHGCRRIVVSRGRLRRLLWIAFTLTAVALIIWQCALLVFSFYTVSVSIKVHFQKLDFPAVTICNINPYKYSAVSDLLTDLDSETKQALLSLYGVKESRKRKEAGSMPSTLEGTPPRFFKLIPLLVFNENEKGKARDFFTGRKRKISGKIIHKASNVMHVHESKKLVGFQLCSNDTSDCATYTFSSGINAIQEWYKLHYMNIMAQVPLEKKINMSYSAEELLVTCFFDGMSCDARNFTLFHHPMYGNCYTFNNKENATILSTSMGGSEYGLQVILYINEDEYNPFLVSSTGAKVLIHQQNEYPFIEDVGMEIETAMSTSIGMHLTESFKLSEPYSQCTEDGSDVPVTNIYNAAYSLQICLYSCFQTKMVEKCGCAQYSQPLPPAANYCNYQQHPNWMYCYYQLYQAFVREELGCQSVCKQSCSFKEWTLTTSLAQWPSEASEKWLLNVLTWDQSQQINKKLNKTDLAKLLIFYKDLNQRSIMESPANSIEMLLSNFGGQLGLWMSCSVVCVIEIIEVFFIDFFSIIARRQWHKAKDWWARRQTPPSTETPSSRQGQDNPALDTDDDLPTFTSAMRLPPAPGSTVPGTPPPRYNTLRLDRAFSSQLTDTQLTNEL", "experiment": "Oocyte current of furin-insensitive ENaC mutant", "type": "cell-based", "settings": "co-expression in oocytes", "method": "Oocyte studies. Xenopus laevis oocytes were harvested and injected as described (Donaldson, et al., J. Biol. Chem. 277:8338 (2002)). Defolliculated healthy stage V-VI oocytes were injected with 0.3 ng of cRNA of each ENaC subunit. Injected oocytes were kept in modified Barth's saline (in mM: 88 NaCl, 1 KCl, 2.4 NaHCO3, 0.3 Ca(NO3)2, 0.41 CaCl2, 0.82 MgSO4, and 15 HEPES, adjusted to pH 7.35 with Tris). Oocytes were studied 24 hr after injection using the two electrode voltage clamp technique as previously described (Donaldson, et al., J. Biol. Chem. 277:8338 (2002)). Oocytes were clamped at a holding potential of […]. The change in amiloride-sensitive whole cell current as an indicator of ENaC activity was determined by subtracting the corresponding current value measured in the presence of 10 μM amiloride from that measured before the application of amiloride."}
{"molecule": "B1", "values": [{"measurement": "inhibition of furin-insensitive ENaC mutant", "result": "inhibited"}]}
